We go through 125 sequences from the supplement of paper PMC9112550, “Optimization of the antimicrobial peptide Bac7 by deep mutational scanning” (BMC Biology, 2022).
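Further: peptides expressed intracellularly from a pBAD plasmid library in pooled LB shake-flask culture, induced with 0.3% L-arabinose, DNA abundance read by NGS, three biological replicates, DESeq2 with apeglm shrinkage.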

The data set relates to Escherichia coli TOP10. The data set can be described thus: shrunken log2 fold change of peptide-encoding DNA abundance (4.5 h post-induction vs induction); higher = less antimicrobial activity (less host growth inhibition). The settings on record: time post-induction: 4.5 h; library: site-saturation at positions 5, 18, 19, 20.
On to RRIRSRPPRLPRPRPRPYTQPRP, for which the “shrunken log2 fold change” value is -0.184.

Regarding RRIRRRPPRLPRPRPRPTKHPRP, the “shrunken log2 fold change” value turned out to be 0.124. RRIRGRPPRLPRPRPRPRWWPRP: the “shrunken log2 fold change” value amounted to 0.667. In the case of RRIRDRPPRLPRPRPRPPAAPRP, the “shrunken log2 fold change” value is 1.13. For RRIRHRPPRLPRPRPRPWPVPRP the value was 0.155; for RRIRQRPPRLPRPRPRPYPKPRP, 0.00727.

As to RRIRPRPPRLPRPRPRPQYLPRP, the “shrunken log2 fold change” value was -0.769. As to RRIRERPPRLPRPRPRPPNEPRP, the “shrunken log2 fold change” value was 0.28. Regarding RRIRKRPPRLPRPRPRPKSNPRP, the “shrunken log2 fold change” value came out at 0.112. With RRIRTRPPRLPRPRPRPQTRPRP, the “shrunken log2 fold change” value was determined as 0.145. For RRIRCRPPRLPRPRPRPHYFPRP the value was -0.324; for RRIRNRPPRLPRPRPRPGMFPRP, -0.252; for RRIRARPPRLPRPRPRPNRIPRP, -0.215.

Consider RRIRLRPPRLPRPRPRPKKWPRP, for which the “shrunken log2 fold change” value amounted to 0.11. In the case of RRIRRRPPRLPRPRPRPYALPRP, the “shrunken log2 fold change” value was -0.5. RRIRKRPPRLPRPRPRPEVCPRP: the “shrunken log2 fold change” value was determined as 0.0227. In the case of RRIRRRPPRLPRPRPRPFGEPRP it was 0.412; in that of RRIRWRPPRLPRPRPRPKDEPRP, 0.0784. For the sequence RRIRKRPPRLPRPRPRPMIIPRP, the “shrunken log2 fold change” value was -0.0318. Regarding RRIRHRPPRLPRPRPRPLMDPRP, the “shrunken log2 fold change” value was -0.974.

Consider RRIRKRPPRLPRPRPRPDMNPRP, for which the “shrunken log2 fold change” value stood at 0.375. RRIRGRPPRLPRPRPRPLCCPRP: the “shrunken log2 fold change” value came out at 0.829. On to RRIRARPPRLPRPRPRPVANPRP, for which the “shrunken log2 fold change” value worked out at 0.238. In the case of RRIRSRPPRLPRPRPRPELFPRP, the “shrunken log2 fold change” value was determined as 0.104. Regarding RRIRQRPPRLPRPRPRPVGEPRP, the “shrunken log2 fold change” value was 0.443. Regarding RRIRFRPPRLPRPRPRPATKPRP, the “shrunken log2 fold change” value worked out at 0.217. For RRIRNRPPRLPRPRPRPCQVPRP the value was -0.106; for RRIRVRPPRLPRPRPRPRTTPRP, 0.378; for RRIRERPPRLPRPRPRPKKNPRP, -0.0468. For RRIRVRPPRLPRPRPRPIMWPRP the value was 0.03. Take RRIRMRPPRLPRPRPRPKHSPRP: the “shrunken log2 fold change” value came out at 0.247.

With RRIRYRPPRLPRPRPRPVCVPRP, the “shrunken log2 fold change” value was -0.339.

For the sequence RRIRNRPPRLPRPRPRPKWIPRP, the “shrunken log2 fold change” value was 0.0111. RRIRNRPPRLPRPRPRPHLFPRP: the “shrunken log2 fold change” value was -0.0208. For RRIRVRPPRLPRPRPRPPQFPRP the value was 0.146. In the case of RRIRSRPPRLPRPRPRPGWEPRP it was -0.0365; in that of RRIRRRPPRLPRPRPRPNLSPRP, -0.0897. In the case of RRIRMRPPRLPRPRPRPVLRPRP, the “shrunken log2 fold change” value turned out to be 0.106. In the case of RRIRGRPPRLPRPRPRPCMLPRP it was 0.336; in that of RRIRRRPPRLPRPRPRPFSLPRP, 0.0919; in that of RRIRRRPPRLPRPRPRPWSLPRP, 0.016. Consider RRIRKRPPRLPRPRPRPPPNPRP, for which the “shrunken log2 fold change” value stood at 0.982.

RRIRKRPPRLPRPRPRPHAMPRP: the “shrunken log2 fold change” value was -0.0147.

Turning to RRIRVRPPRLPRPRPRPSMTPRP, the “shrunken log2 fold change” value is -0.175. With RRIRARPPRLPRPRPRPIKIPRP, the “shrunken log2 fold change” value was -0.095. For RRIRVRPPRLPRPRPRPIDAPRP, the “shrunken log2 fold change” value was -0.206.

Consider RRIRKRPPRLPRPRPRPTAAPRP, for which the “shrunken log2 fold change” value stood at 0.757.

RRIRSRPPRLPRPRPRPYLNPRP: the “shrunken log2 fold change” value is -0.564.

With RRIRIRPPRLPRPRPRPMSDPRP, the “shrunken log2 fold change” value was -0.102. RRIRPRPPRLPRPRPRPWFNPRP: the “shrunken log2 fold change” value is -0.541. In the case of RRIRIRPPRLPRPRPRPVDLPRP it was 0.0939; in that of RRIRCRPPRLPRPRPRPHMIPRP, -0.0573.

Take RRIRGRPPRLPRPRPRPSHEPRP: the “shrunken log2 fold change” value was -0.418.

With RRIRKRPPRLPRPRPRPCFMPRP, the “shrunken log2 fold change” value is -0.0787. For RRIRTRPPRLPRPRPRPGKKPRP, the “shrunken log2 fold change” value is -0.0783.

Take RRIRMRPPRLPRPRPRPYSPPRP: the “shrunken log2 fold change” value was -0.199.

With RRIRGRPPRLPRPRPRPNAEPRP, the “shrunken log2 fold change” value was 2.89.

For RRIRSRPPRLPRPRPRPMQKPRP, the “shrunken log2 fold change” value is -0.0221. In the case of RRIRDRPPRLPRPRPRPPQQPRP, the “shrunken log2 fold change” value was -0.089. Regarding RRIRHRPPRLPRPRPRPQKLPRP, the “shrunken log2 fold change” value was -0.52. Regarding RRIRQRPPRLPRPRPRPRVSPRP, the “shrunken log2 fold change” value is -0.0909. In the case of RRIRHRPPRLPRPRPRPYSGPRP it was -0.151; in that of RRIRPRPPRLPRPRPRPRGMPRP, 0.137; in that of RRIRARPPRLPRPRPRPIWTPRP, -0.144. In the case of RRIRHRPPRLPRPRPRPVFTPRP it was -0.392; in that of RRIRERPPRLPRPRPRPQNKPRP, -0.64; in that of RRIRHRPPRLPRPRPRPNLPPRP, -0.57. For RRIRTRPPRLPRPRPRPTRMPRP the value was 0.196. For RRIRCRPPRLPRPRPRPGFMPRP, the “shrunken log2 fold change” value was -0.429. On to RRIRERPPRLPRPRPRPLMDPRP, for which the “shrunken log2 fold change” value is -0.134. For the sequence RRIRVRPPRLPRPRPRPVVIPRP, the “shrunken log2 fold change” value was -0.401.

In the case of RRIRLRPPRLPRPRPRPWYTPRP, the “shrunken log2 fold change” value was -0.57.

Regarding RRIRQRPPRLPRPRPRPKARPRP, the “shrunken log2 fold change” value is 0.152. Regarding RRIRSRPPRLPRPRPRPRYMPRP, the “shrunken log2 fold change” value is -0.664. In the case of RRIRCRPPRLPRPRPRPFQNPRP, the “shrunken log2 fold change” value was -0.0078. As to RRIRIRPPRLPRPRPRPKKAPRP, the “shrunken log2 fold change” value is -0.209. In the case of RRIRYRPPRLPRPRPRPLVSPRP it was -0.113. RRIRCRPPRLPRPRPRPAPSPRP: the “shrunken log2 fold change” value worked out at 0.504.

Turning to RRIRRRPPRLPRPRPRPHPAPRP, the “shrunken log2 fold change” value is 0.583. Take RRIRKRPPRLPRPRPRPSPVPRP: the “shrunken log2 fold change” value is 0.191.

Regarding RRIRSRPPRLPRPRPRPRQGPRP, the “shrunken log2 fold change” value stood at 0.185. In the case of RRIRGRPPRLPRPRPRPFSAPRP it was 0.0503; in that of RRIRNRPPRLPRPRPRPSWMPRP, -0.487. In the case of RRIRCRPPRLPRPRPRPLCLPRP, the “shrunken log2 fold change” value is -0.525. For RRIRFRPPRLPRPRPRPACTPRP the value was -0.148; for RRIRWRPPRLPRPRPRPPHVPRP, 0.444. Turning to RRIRYRPPRLPRPRPRPKEYPRP, the “shrunken log2 fold change” value turned out to be 0.171.

In the case of RRIRFRPPRLPRPRPRPKYNPRP, the “shrunken log2 fold change” value was -0.978. Consider RRIRHRPPRLPRPRPRPHCDPRP, for which the “shrunken log2 fold change” value is -0.0744. For RRIRDRPPRLPRPRPRPTDRPRP the value was 0.694; for RRIRPRPPRLPRPRPRPNWEPRP, 0.0541. Turning to RRIRGRPPRLPRPRPRPNALPRP, the “shrunken log2 fold change” value was 0.474. RRIRLRPPRLPRPRPRPFLHPRP: the “shrunken log2 fold change” value is -0.306. Turning to RRIRTRPPRLPRPRPRPFEPPRP, the “shrunken log2 fold change” value was -0.231. With RRIRQRPPRLPRPRPRPKINPRP, the “shrunken log2 fold change” value was -0.354. Turning to RRIRPRPPRLPRPRPRPDHNPRP, the “shrunken log2 fold change” value was -0.675. For the sequence RRIRMRPPRLPRPRPRPPVLPRP, the “shrunken log2 fold change” value is -0.122. In the case of RRIRKRPPRLPRPRPRPTGSPRP it was 0.423; in that of RRIRIRPPRLPRPRPRPVRKPRP, -0.48; in that of RRIRHRPPRLPRPRPRPVMAPRP, -0.27. For the sequence RRIRIRPPRLPRPRPRPKIQPRP, the “shrunken log2 fold change” value is -0.196. As for RRIRDRPPRLPRPRPRPWLAPRP, the “shrunken log2 fold change” value came to 0.171.

In the case of RRIRPRPPRLPRPRPRPIESPRP, the “shrunken log2 fold change” value is -0.252. For the sequence RRIRFRPPRLPRPRPRPAFCPRP, the “shrunken log2 fold change” value was 0.0477. In the case of RRIRMRPPRLPRPRPRPAFMPRP it was 0.211. As for RRIRYRPPRLPRPRPRPVSWPRP, the “shrunken log2 fold change” value was found to be 0.106. Turning to RRIRMRPPRLPRPRPRPIMYPRP, the “shrunken log2 fold change” value was -0.171. For RRIRDRPPRLPRPRPRPHHPPRP the value was -0.408; for RRIRMRPPRLPRPRPRPGSHPRP, 0.0978; for RRIRYRPPRLPRPRPRPLAFPRP, -0.827. RRIRLRPPRLPRPRPRPHIFPRP: the “shrunken log2 fold change” value is -0.747.

Turning to RRIRERPPRLPRPRPRPMGRPRP, the “shrunken log2 fold change” value turned out to be 0.0998. As to RRIRIRPPRLPRPRPRPTKKPRP, the “shrunken log2 fold change” value came out at 0.0727. For the sequence RRIRKRPPRLPRPRPRPVLWPRP, the “shrunken log2 fold change” value stood at 1.78. For RRIRKRPPRLPRPRPRPEDLPRP, the “shrunken log2 fold change” value was determined as 1.8.

On to RRIRNRPPRLPRPRPRPLCNPRP, for which the “shrunken log2 fold change” value is -0.324. On to RRIRRRPPRLPRPRPRPDDSPRP, for which the “shrunken log2 fold change” value was -0.0232. With RRIRRRPPRLPRPRPRPRFQPRP, the “shrunken log2 fold change” value was 0.555. For RRIRKRPPRLPRPRPRPITCPRP, the “shrunken log2 fold change” value was determined as 0.0162. Regarding RRIRSRPPRLPRPRPRPTQWPRP, the “shrunken log2 fold change” value was found to be 0.354. For RRIRPRPPRLPRPRPRPRKWPRP the value was 0.671; for RRIRFRPPRLPRPRPRPQDNPRP, -0.186. In the case of RRIRDRPPRLPRPRPRPYHHPRP, the “shrunken log2 fold change” value was -0.0229.

In the case of RRIRVRPPRLPRPRPRPMYDPRP, the “shrunken log2 fold change” value is -0.0887. For RRIRDRPPRLPRPRPRPWWSPRP the value was -0.0691.
